Experimental data taken from patent US20050084844A1.
Values joined by “and” are separate entries in the source; they are usually repeats but may differ in a detail not shown here. Identical values can stand only once.

What was measured:
[1] = biological target: endogenous latent TGFβ secreted by B9F cells (latent TGFβ1, 2 and 3) (rat); test: cell-based or functional assay
[2] = biological target: active TGFβ generated by positive B9F clones (rat); test: cell-based or functional assay

Substance | rightward shift in GFP fluorescence of B9F reporter cells (percent of cells in the bright gate) [1] [%] | luciferase activity of TMLC co-culture with positive clones, with against without the TGFβ inhibitor (LAP) (fraction of the value without inhibitor) [2]
integrin ανβ6 on B9F reporter cells (retrovirally expressed β6-integrin subunit paired with the endogenously expressed αν-integrin subunit) (receptor) | 48 | 
integrin ανβ8 on B9F reporter cells (retrovirally expressed β8-integrin subunit paired with the endogenously expressed αν-integrin subunit) (receptor) | 25 | 
Recombinant simian TGFβ1 LAP (from UniProt P09533 30-278) |  | 0.33 and 0.5
